The values below come from patent publication US20100017897A1 (CHILDREN S HOSPITAL OF PHILADELPHIA, published 2010).

T1: cytosolic domain of human PRRG4 (human, UniProt Q9BZD6 139-226)
T1 construct: Expressed in insect cells; also called cytosolic hPPRG4; cystosolic domain of hPPRG4; not shown: purified by HA and histidine columns, so HA and His tags are implied
T1 sequence: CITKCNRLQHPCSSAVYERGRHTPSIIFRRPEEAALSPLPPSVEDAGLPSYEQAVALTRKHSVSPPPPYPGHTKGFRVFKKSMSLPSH

B1: Abelson-related protein; Arg tyrosine kinase (other, UniProt P42684 107-167, looked up)
chain: SDPNLFVALYDFVASGDNTLSITKGEKLRVLGYNQNGEWSEVRSKNGQGWVPSNYITPVNS
notes: domain: SH3 domain; Array spot; also called Abl2
B2: Lyn, Src family of non-receptor protein Tyrosine kinase (other, UniProt P07948 63-123, looked up)
chain: EQGDIVVALYPYDGIHPDDLSFKKGEKMKVLEEHGEWWKAKSLLTKKEGFIPSNYVAKLNT
notes: domain: SH3 domain; Array spot
B3: Tyrosine-protein kinase Tec (other, UniProt P42680 179-239, looked up)
chain: NSEEIVVAMYDFQAAEGHDLRLERGQEYLILEKNDVHWWRARDKYGNEGYIPSNYVTGKKS
notes: as for B2
B4: Grb2-related adaptor protein, SH3 Domain #2 (other, UniProt Q13588 158-217, looked up)
chain: PGACFAQAQFDFSAQDPSQLSFRRGDIIEVLERPDPHWWRGRSCGRVGFFPRSYVQPVHL
notes: domain: SH3 Domain #2; Array spot; also called Grap-D2
B5: Nebulette (other, UniProt O76041 954-1014, looked up)
chain: PNLRTYRAMYDYSAQDEDEVSFRDGDYIVNVQPIDDGWMYGTVQRTGRTGMLPANYIEFVN
notes: domain: SH3 domain; Array spot; also called NEBL
B6: Peroxisomal membrane protein PEX13 (other, UniProt Q92968 272-336, looked up)
chain: DDHVVARAEYDFAAVSEEEISFRAGDMLNLALKEQQPKVRGWLLASLDGQTTGLIPANYVKILGK
notes: domain: SH3 domain; Array spot; also called PEXD
B7: PAK-interacting exchange factor beta (other, UniProt Q14155 184-243, looked up)
chain: NNQLVVRAKFNFQQTNEDELSFSKGDVIHVTRVEEGGWWEGTLNGRTGWFPSNYVREVKA
notes: domain: SH3 domain; Array spot; also called Y124
B8: Bruton Tyrosine Kinase (other, UniProt Q06187 214-274, looked up)
chain: SELKKVVALYDYMPMNANDLQLRKGDEYFILEESNLPWWRARDKNGQEGYIPSNYVTEAED
notes: domain: SH3 domain; Array spot; also called BTK
B9: Osteoclast stimulating factor 1 (other, UniProt Q92882 12-71, looked up)
chain: GQVKVFRALYTFEPRTPDELYFEEGDIIYITDMSDTNWWKGTSKGRTGLIPSNYVAEQAE
notes: domain: SH3 domain; Array spot; also called OSF

One assay addresses T1, cytosolic domain of human PRRG4. As to the kind of experiment: WW domain array probed with purified cytosolic hPRRG4; listed as a hit. The source says: PRRG4 has one WW-binding domain in its cytosolic domain. WW domains are involved in several cellular processes including cell cycle control and cell proliferation. In order to analyze the possible interactions of PRRG4 with different WW motif containing proteins, the cytosolic domain of human PRRG4 was purified by our group and used in TranSignal WW Domain Arrays. This array contains WW domains from 67 different human proteins and each WW domain is spotted in duplicate. […] Among these proteins Yes-Associated Protein1 (YAP 1) and Nedd4 are particularly important as they are known to play essential roles in several cellular activities including cell proliferation. FIGS. 9 and 10 are tables that show the proteins that are used on the array.
(§1) The cystosolic domain of hPPRG4 was expressed in insect cells and proteins were purified by HA and histidine columns. Interactions of cytosolic hPPRG4 with different SH3 and WW domains were tested by incubating purified hPRRG4 proteins with arrays containing SH3 and WW domains of several proteins. After incubation, PRRG4 bound to several proteins, most of which are non-receptor tyrosine kinases or scaffolding proteins. These newly identified binding partners provide valuable therapeutic targets for the isolation and characterization of therapeutic agents that impact PRRG4 mediated oncogenesis.
On to LPLPPGWEMTFTATGQRYFLNHIEKITTWQDPRK (other, human, UniProt Q9GZV5 124-157, looked up, domain: WW domain; Array spot) [transcriptional co-activator with PDZ-binding motif (TAZ)], for which the binding result was “binds”.

Another assay shares this target. The experiment in a line: SH3 domain array probed with purified cytosolic hPRRG4; listed as a hit. The protocol: as §1
As to B1, the binding result is reported as “binds”.
Still for that read-out and setting: the result for B2 reads “binds”; that for B3, “binds”; that for B4, “binds”.
Take B5: the binding result is “binds”.
Turning to B6, the binding result was “binds”.
As to B7, the binding result is given as “binds”.
On to B8, for which the binding result is “binds”.
Still for that read-out and setting: the result for B9 reads “binds”.
